T1: CD27 expressed on the cell surface (HT1080_CD27 cells) (human, UniProt P26842 20-260)
T1 sequence (looked up): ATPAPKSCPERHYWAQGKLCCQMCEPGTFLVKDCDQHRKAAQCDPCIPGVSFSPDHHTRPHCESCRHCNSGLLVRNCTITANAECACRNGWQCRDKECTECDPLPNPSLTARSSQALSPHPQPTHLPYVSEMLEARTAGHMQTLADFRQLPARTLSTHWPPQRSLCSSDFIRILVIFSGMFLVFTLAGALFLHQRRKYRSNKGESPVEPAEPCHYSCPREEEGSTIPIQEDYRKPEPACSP

T2: CD27 protein (His-tagged, Sino Biological Inc. 10039-H08B1) (human, UniProt P26842 20-192)
T2 construct: bought; coated onto ELISA plates; also called human CD27; recombinant protein; not shown: His tag
T2 sequence (looked up): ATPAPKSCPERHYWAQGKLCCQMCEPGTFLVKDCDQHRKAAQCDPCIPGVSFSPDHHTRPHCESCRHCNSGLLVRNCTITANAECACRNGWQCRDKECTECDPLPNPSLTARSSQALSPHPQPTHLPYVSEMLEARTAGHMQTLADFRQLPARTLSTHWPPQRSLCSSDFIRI

B1: P018.S.04.A.G04 (antibody, V domains shown)
VH: QSLEESGGRLVTPGTPLTLTCTASGFTISSHHVTWVRQAPGEGLEWIGVIYPSGTTYYASWAKGRFTISRTSTTVDLKMTSLTIEDTATYFCVRDVGYFTLWGQGTLVTVSS
VL: AQVLTQTPSPVSAAVGGTVTISCQSSQSVGGNNWLAWYQQKLGQPPKLLIYYASTLASGVPPRFSGSGSGTQFTLTISEVQSDDSATYYCQGYYSDVTNAFGGGTEVVVK
notes: V regions on human Ig constant parts; also called AB27_78
B2: P018.S.02.A.A06 (antibody, V domains shown)
VH: QSVEESGGRLVKPDESLTLTCTVSGIDLSTYAMGWVRQAPGKGLEYIGMISTGGSAYYASWAQGRFTISRTSTTVDLKMTSLTTEDTATYFCARLRDPYSYRTYFNLWGPGTLVTVSS
VL: ALVMTQTPSSVEAAVGGTVTIKCQASLSISSALAWYQQKPGQRPKLLIYDASNLESGVPSRFKGSGSGAHFTLTVSDLESADAATYYCQGPYDTVNNNSFGGGTEVVVK
notes: V regions on human Ig constant parts; also called AB27_28
B3: P018.S.09.A.C06 (antibody, V domains shown)
VH: QSVEESGGRLVTPGTPLTLTCTVSGFSLSTYAMGWVRQAPGKGLEWIGIIYTGGSTYYASWAEGRFTISKTSTTVDLKITSPTPEDTATYFCTRDLGATYDYFDLWGQGTLVTVSS
VL: AYDMTQTPASVEVAVGGTVTIKCQASQSISTALAWYQQKPGQRPKLLIYDTSDLASGVPSRFSGSGSGTEFTLTISGVESADAATYYCQQGYRHTNVDNPFGGGTGVVVK
notes: V regions on human Ig constant parts; also called AB27_149
B4: P018.S.01.A.G03 (antibody, V domains shown)
VH: QSVEESGGRLVTPGTPLTLTCTVSGFSLSSYSMIWVRQAPGKGLEWIGIVYASGSTNYASWAKGRFTISKTSTTVDLKITSPTTEDTATYFCARGDVLYAFDPWGPGTLVTVSS
VL: AFELTQTPSSVSAAVGGTVTIKCQASENIYSYLAWYQQKPGQPPKRLIYYASNLASGVSSRFKGSGSGTEFTLTISDLESADAATYYCQYTYSTSPGYIFGGGTEVVVK
notes: V regions on human Ig constant parts; also called AB27_22
B5: P018.S.06.A.C06 (antibody, V domains shown)
VH: QQQLEESGGGLVKPGGTLTLPCKASGFTISSDYDMCWVRQAPGKGLEWITCILGGSGGSTWYANWAKGRFTISQSSSTTVTLQMTSLTDADTATYFCTRASGFTYFELWGPGTLVTVSS
VL: AQVLTQTPSSVSAAVGGTVTINCQASQSVYNNKNLAWYQQKPGQPPKLLIYYASTLASGVSSRFKGSGSGTQFTLTISDVQSDDAATYYCQGEFSCSSSDCFAFGGGTEVVVK
notes: V regions on human Ig constant parts; also called AB27_102
B6: P018.S.03.A.B05 (antibody, V domains shown)
VH: QEQLEESGGDLVKPEGSLTLTCTASGFDLSSRYWICWVRQAPGKGLEWIGCIKTGFSNTWYASWATGRFTFSKASSTTVTLQMTSLTVADTATYFCARIAAAASASDDFRLWGPGTLVTVSS
VL: AQVLTQTPSSVSAAVGGTVTISCQSSKSVYNKWLSWFQQKPGQPPKLLIYDASDLASGVPSRFKGSGSGTEFTLTISDVQSDDAATYFCLGHYDSSSDRFVFGGGTEVVVK
notes: V regions on human Ig constant parts; also called AB27_43
B7: P018.S.01.A.E06 (antibody, V domains shown)
VH: QSLEESGGDLVKPGASLTLTCTASGIDFSSSYYMCWVRQAPGKGLEWIGCIATGGGNTYYATWAKGRFTFSETSSTTVTLQMTSLTVADTATYFCARTYPSMWYFNLWGPGTLVTVSS
VL: DVVMTQTPASVSEPVGGTVTIKCQASQSIGFNLAWYQQKPGQPPNLLIYGVSTLTSGVSSRFKGSGSGTQFTLTISDLESADAATYYCQSFYAGSSAFGGGTEVVVK
notes: V regions on human Ig constant parts; also called AB27_18
B8: P018.S.10.A.C05 (antibody, V domains shown)
VH: QSVEETGGRLVTPGTPLTLTCAASGVSLSGYYAMSWVRQAPGKGLEWIGYLDATGSTYYASWVKGRFIISRPSTTVDLQITSPTIEDTATYFCARGSYDGVGYNWGLWGQGTLVTVSS
VL: DIVMTQTPASVSEPVGGTVTIKCQASESIYNGLAWYQQKPGQPPKRLIYGASTLTSGVPSRFKGSGSGTEFTLTISDLESDDAATYYCQSNYGSGSRSNYIFGGGTEVVVK
notes: V regions on human Ig constant parts; also called AB27_173
B9: P018.S.07.A.C04 (antibody, V domains shown)
VH: QEQLVESGGGLVQPEGSLTLTCTASGFSFSSRFWICWVRQAPGKGLEWIACIYGGSTSATYDASWAKGRFTISKTSSTTVTLQMTSLTAADTATYFCTRLPTYDAYVFNLWGPGTLVTVSS
VL: AIVMTQTPSSKSVPVGATATINCQASESVFSNNYLSWYQQKPGRSPKLLIYEASKLASGVPSRFSGSGSGTQFTLTISDVVSDDAATYYCGGYKSNNVDGYAFGGGTEVVVK
notes: V regions on human Ig constant parts; also called AB27_120
B10: P018.S.01.A.D05 (antibody, V domains shown)
VH: QSLEESGGRLVTPGTPLTLTCTASGFSLSSYYMSWVRQAPGKGLEYIGGIYTGGSAYYASWARGRFTISRTSTTVDLKMTSLTIEDTATYFCARDAGDRIYTTFNLWGPGTLVTVSS
VL: ALVMTQTPASVSEPVGGTVSLKCQASQSIGSDLSWYQQKSGQPPKLLIYRASKLASGVPSRFKGSGSGTEFTLTISGVQSDDAATYYCLGIDSYSSDDGIAFGGGTEVVVK
notes: V regions on human Ig constant parts; also called AB27_13
B11: P018.S.10.A.A04 (antibody, V domains shown)
VH: QSVEESGGRLVTPGTPLTLTCTVSGIDLSSNVMTWVRQAPGKGLEWIGYIYASATTYYATWAKGRFTISKTSTTVDLKMTSPTTEDTATYFCARERLASRGDYSDLWGQGTLVTVSS
VL: AYDMTQTPASVEAAVGGTVTIKCQASESIGDLLAWYQQKPGQPPKLLIYDASDLASGVPSRFKGSGSGTEFTLTISGVESADAATYYCQQGYTTTSNVDNIFGGGTEVVVK
notes: V regions on human Ig constant parts; also called AB27_164
B12: P018.S.03.A.F02 (antibody, V domains shown)
VH: QSVEESGGRLVTPGTPLTLTCTVSGFSLSSNAMTWVRQAPGKGLEWIGFINTGGSTYYASWAKGRFTISKTSTTVDLKITSPTTEDTATYFCARDVGDSRGYYWGLWGQGTLVTVSS
VL: AYDMTQTPASVPAAVGGTVTIKCQASEDIYSLLAWYQQKPGQPPKLLIYDASDLASGVPSRFRGSGSGTDYTLTISGVESADAATYYCQQGYTTYTTVDNIFGGGTEVVVK
notes: V regions on human Ig constant parts; also called AB27_53
B13: P018.S.04.A.D04 (antibody, V domains shown)
VH: QSVEESGGRLVTPGTPLTLTCTVSGIDLSSYSMTWVRQAPGKGLEWIGFINTGGRGYYASWAKGRFTISKTSTTVDLKITSPTTEDTATYFCARDAGSSRGYYRDLWGQGTLVTVSS
VL: AYDMTQTPASVSAAVGGTVTIKCQASEDIYSLLAWYQQKPGQPPKLLIYDASDLASGVPSRFSGSGSGTDYTLTISGVESADAATYYCQQGYTTSTTVDNIFGGGTEVVVK
notes: V regions on human Ig constant parts; also called AB27_72
B14: P018.S.06.A.A03 (antibody, V domains shown)
VH: QSVEESGGRLVTPGTPLTLTCTVSGFSLSSNAMTWVRQAPGKGLEWIGFINTGSSTYYASWAKGRFTISKTSTTVDLKITSPTTEDTATYFCARDADDSRGYYWGLWGQGTLVTVSS
VL: AYDMTQTPASVPAAVGGTVTIKCQASEDIYSLLAWYQQKPGQPPKLLIYDASDLASGVPSRFRGSGSGTDYTLTISGVESADAATYYCQQGYTTYTTVDNIFGGGTEVVVK
notes: V regions on human Ig constant parts; also called AB27_96
B15: P018.S.04.A.B05 (antibody, V domains shown)
VH: QSVEESGGRLVTPGTPLTLTCTASGFTLSSFYMSWVRQAPGKGLEWIGFIHGHGNTYYASWAKGRFTISKTSTTVDLKIASPTTEDTATYFCARGGHPNMDLWGQGTLVTISS
VL: DIVMTQTPSSVEAAVGGTVTIKCQASQNINNYLAWYQQKPGQPPKLLIYYASTLASGVSSRFKGSGSGTEFTLTISDLESDDAATYYCQCSYYDASIFGAFGGGTEVVVR
notes: V regions on human Ig constant parts; also called AB27_68
B16: P018.S.07.A.H02 (antibody, V domains shown)
VH: QEQLVESGGGLVQPEGSLTLTCKASGFDFSSDAMCWVRQAPGKGLEWIACIYVGSVGSSWYASWAKGRFTISKSSSTTVTLQVTSLTAADTATYFCARGENIAYFTFWGPGTLVTVSS
VL: DIMMTQTPASVSAAVGGTVTIKCQASQSINSWLSWYQQKPGQPPKLLIYKASTLASGVPSRFEGSGSGTEFTLTISDLESADAATYYCQGYYYYSSSNFASNAFGGGTEVVVK
notes: V regions on human Ig constant parts; also called AB27_131

How the values were obtained:
[1] = target: T1, CD27 expressed on the cell surface …; assay: cell-based or functional assay
[2] = target: T1, CD27 expressed on the cell surface …; assay: cellular binding assay, HT1080_CD27 cells
[3] = target: T2, CD27 protein (His-tagged, Sino …); assay: ELISA on coated His-tagged CD27
Note: test concentration or dose not given here.

| Binder | IL-8, cross-linked by F(ab')2 fragment [abs. corr.] [1] [abs. corr.] | IL-8 [abs. corr.] [1] [abs. corr.] | Cellular binding assay [RFU] [2] [RFU] | ELISA [abs. corr.] [3] [abs. corr.] |
| --- | --- | --- | --- | --- |
| B1 | 1.57 | 0.451 | 335 | 3.48 |
| B2 | 1.48 | 0.299 | 293 | 3.13 |
| B3 | 2.3 | 1.94 | 219 | 3.45 |
| B4 | 1.21 | -0.105 | 358 | 3.5 |
| B5 | 1.08 | 0.128 | 379 | 3.13 |
| B6 | 1.21 | 0.325 | 206 | 3.14 |
| B7 | 1.4 | 0.448 | 291 | 3.45 |
| B8 | 2.1 | 0.206 | 11 | 3.14 |
| B9 | 1.65 | 0.302 | 300 | 3.45 |
| B10 | 1.1 | 0.089 | 273 | 3.14 |
| B11 | 2.16 | 1.78 | 175 | 3.13 |
| B12 | 1.22 | 0.736 | 276 | 3.46 |
| B13 | 1.32 | 0.486 | 365 | 3.7 |
| B14 | 1.86 | 0.576 | 387 | 3.41 |
| B15 | 1.08 | 0.308 | 414 | 3.5 |
| B16 | 1.22 | 0.107 | 283 | 3.47 |

Reference: patent publication US20210253725A1 (BIONTECH, published 2021)
